Measurements: article PMC2811023 (Nucleic Acids Research, 2009)

T1: Staphylococcus aureus GatA (subunit A of the heterotrimeric tRNA-dependent amidotransferase GatCAB) (Staphylococcus aureus, UniProt P63488 1-485)
T1 sequence: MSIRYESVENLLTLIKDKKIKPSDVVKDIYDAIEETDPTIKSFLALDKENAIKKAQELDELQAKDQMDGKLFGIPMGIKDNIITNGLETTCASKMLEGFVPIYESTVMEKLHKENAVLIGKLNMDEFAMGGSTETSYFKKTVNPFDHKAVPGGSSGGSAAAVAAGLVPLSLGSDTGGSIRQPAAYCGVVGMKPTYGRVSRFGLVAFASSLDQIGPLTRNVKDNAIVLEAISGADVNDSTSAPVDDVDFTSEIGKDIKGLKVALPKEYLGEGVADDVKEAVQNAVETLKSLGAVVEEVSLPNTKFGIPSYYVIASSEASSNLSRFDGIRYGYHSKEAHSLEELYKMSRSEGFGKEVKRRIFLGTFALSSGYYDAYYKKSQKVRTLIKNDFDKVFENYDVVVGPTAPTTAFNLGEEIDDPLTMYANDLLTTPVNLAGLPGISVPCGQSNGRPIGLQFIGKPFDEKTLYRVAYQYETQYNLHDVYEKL

B1: Staphylococcus aureus GatB (subunit B of the heterotrimeric tRNA-dependent amidotransferase GatCAB) (enzyme)
chain: MHFETVIGLEVHVELKTDSKMFSPSPAHFGAEPNSNTNVIDLAYPGVLPVVNKRAVDWAMRAAMALNMEIATESKFDRKNYFYPDNPKAYQISQFDQPIGENGYIDIEVDGETKRIGITRLHMEEDAGKSTHKGEYSLVDLNRQGTPLIEIVSEPDIRSPKEAYAYLEKLRSIIQYTGVSDVKMEEGSLRCDANISLRPYGQEKFGTKAELKNLNSFNYVRKGLEYEEKRQEEELLNGGEIGQETRRFDESTGKTILMRVKEGSDDYRYFPEPDIVPLYIDDAWKERVRQTIPELPDERKAKYVNELGLPAYDAHVLTLTKEMSDFFESTIEHGADVKLTSNWLMGGVNEYLNKNQVELLDTKLTPENLAGMIKLIEDGTMSSKIAKKVFPELAAKGGNAKQIMEDNGLVQISDEATLLKFVNEALDNNEQSVEDYKNGKGKAMGFLVGQIMKASKGQANPQLVNQLLKQELDKR
B2: Staphylococcus aureus GatC (subunit C of the heterotrimeric tRNA-dependent amidotransferase GatCAB) (natural protein)
chain: MTKVTREEVEHIANLARLQISPEETEEMANTLESILDFAKQNDSADTEGVEPTYHVLDLQNVLREDKAIKGIPQELALKNAKETEDGQFKVPTIMNEEDA

Key:
[1] = target: T1, Staphylococcus aureus GatA (subunit A …); assay: crystal structure
[2] = target: B1; assay: crystal structure

| Binder | binding result [1] | binding result [2] |
| --- | --- | --- |
| B1 | binds | – |
| B2 | binds | binds |
